The target in data set [1] is T1, AID-tagged CTCF protein (UniProt P93830+Q61164+Q7XVM8).
T1 construct: The AID tag was knocked-in at the endogenous Ctcf gene locus
To be noted: washout; cited from earlier work.

The target in data set [2] is T2, AID-tagged CTCF protein (UniProt Q61164).
T2 construct: The AID tag was knocked-in at the endogenous Ctcf gene locus
To be noted: AID tag knocked-in at endogenous Ctcf locus; cited from earlier work.

Data set [3] has as its target T3, YY1 (Homo sapiens, UniProt P25490 P25490:1-414). The experiment in a line: competition; 100 nM competitor abrogated YY1-enhanced circularization of template, 20 C. As to the method:
Reactions were incubated at 20° C. for 20 minutes to allow binding of YY1 to the DNA. For each timepoint 6 µL of the reaction was withdrawn and quenched in a total volume of 9 µL with a final concentration of 30 mM EDTA, 1×NEB loading dye (NEB, B7024S), 1 ug/µL of proteinase K, and heated at 65° C. for 5 minutes. Timepoint 0 was taken and then 600 units of T4 DNA ligase (NEB M0202) was added and the reaction was carried out at 20° C. Indicated timepoints were taken and then samples were run on a 4-20% TBE gradient gel for three hours at 120 V. The gel was stained with SYBR Gold (Life Technologies S11494) and imaged with a CCD camera.

The target in data set [4] is T3, YY1. The experiment in a line: EMSA; 20 fmol probe, 2 ug YY1, 5 mM MgCl2, 0.1 mM ZnCl2, poly dIdC, RT; abolished by 200-fold cold competitor. To be noted: label: 5' biotin. As to the method:
To generate the biotin labeled probe, 30-nucleotide-long 5' biotinylated single stranded oligonucleotides (IDT) were annealed in 10 mM Tris pH 7.5, 50 mM NaCl, and 1 mM EDTA at a 50 uM concentration. The same protocol was used to generate the cold competitor. The probe was serially diluted to a concentration of 10 fmol/4 and cold competitor to a concentration of 2 pmol/µL. 2 µL of diluted probe and cold competitor were used for each binding reaction for a final amount of 20 fmol labeled probe and 4 pmol cold competitor (200 fold excess) in each reaction.
Binding reactions were set-up in a 20 µL volume containing 1× Binding Buffer (10 mM Tris, 50 mM KCl, 1 mM DTT; pH 7.5), 2.5% Glycerol, 5 mM MgCl2, 50 ng/4 Poly dl dC, 0.05% Np-40, 0.1 mM ZnCl2, 10 mM Hepes, and 2 ug of recombinant YY1 protein. Binding reactions were pre-incubated for 20 mins at room temperature with or without the cold competitor. Labeled probe was then added to binding reactions and incubated for 80 minutes at room temperature. […] The DNA was then crosslinked to the membrane by placing the membrane on a Dark Reader Transilluminator for 15 mins. The membrane was allowed to air dry at room temperature overnight and chemiluminescence detected the following day. […]
For orientation: In EMSA bound probe runs differently from free probe, usually more slowly.

Data set [5] concerns the target T4, FLAG-tagged YY1 and HA-tagged YY1 (Homo sapiens, UniProt P25490).
T4 construct: expressed in transfected cells; host or cells: V6.5 mESCs, transient transfection, nuclear extract
Put plainly: Co-immunoprecipitation of FLAG-tagged and HA-tagged YY1 from nuclear extracts. Type of data set: binding, mouse. As to conditions: nuclear extract treated prior to immunoprecipitation. As to the method:
V6.5 mESCs were transfected with pcDNA3 FLAG YY1 and pcDNA3 […] using Lipofectamine 3000 (Life Technologies #L3000001) according to the manufacturer's instructions. Briefly, cells were split and 8 million cells were plated onto a gelatinized 15 cm plate. 7.5 μg of each plasmid was mixed with 30 μL P3000 reagent and 75 μL Lipofectamine 3000 reagent (Life Technologies #L3000001) in 1250 μL of DMEM (Life technologies #11995-073). After ˜12-16 hours media was changed.
Cells were harvested 48 hours after transfection by washing twice with ice-cold PBS and collected by scraping in ice-cold PBS. Harvested cells were centrifuged at 1,000 rcf for 3 minutes to pellet cells. Supernatant was discarded and cell pellets were flash frozen and stored at −80° C. until ready to prepare nuclear extract. For each 15 cm plate of cells, frozen cell pellets were resuspended in 5 mL of ice-cold hypotonic lysis buffer (20 mM HEPES-KOH pH 7.5, 20% glycerol, 10 mM NaCl, 0.1% Triton X-100, 1.5 mM MgCl2, 0.5 mM DTT and protease inhibitor (Roche, 11697498001)) and incubated on ice for 10 minutes to extract nuclei. Nuclei were pelleted by centrifugation at 14,000 rcf for 10 minutes at 4° C. […] Protein concentration of extracts was quantified by BCA assay (Thermo Scientific, 23225) and protein concentration was adjusted to 400 μg/mL by addition of appropriate volume of 1:2 nuclear extraction buffer:dilution buffer. […]

The values below come from US11873496B2, “Methods of altering gene expression by perturbing transcription factor multimers that structure regulatory loops” (Whitehead Institute for Biomedical Research, priority 2017, dated 2024).

T3 sequence (P25490 whole entry, one chain of several): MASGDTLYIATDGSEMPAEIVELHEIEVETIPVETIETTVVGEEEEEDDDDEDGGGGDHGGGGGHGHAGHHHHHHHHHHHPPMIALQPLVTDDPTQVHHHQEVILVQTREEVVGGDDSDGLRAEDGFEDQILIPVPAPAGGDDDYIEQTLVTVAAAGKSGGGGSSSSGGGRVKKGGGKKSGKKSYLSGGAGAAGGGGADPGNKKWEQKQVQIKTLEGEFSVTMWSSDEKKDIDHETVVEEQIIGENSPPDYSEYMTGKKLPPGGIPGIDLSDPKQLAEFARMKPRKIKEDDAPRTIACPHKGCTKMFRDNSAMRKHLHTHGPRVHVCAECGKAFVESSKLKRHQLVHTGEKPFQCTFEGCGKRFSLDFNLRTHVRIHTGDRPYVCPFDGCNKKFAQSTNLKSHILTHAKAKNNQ
T4 sequence (P25490 whole entry): as the sequence (P25490 whole entry, one chain of several) above
T4 sequence (P25490 whole entry): as the sequence (P25490 whole entry, one chain of several) above
T1 sequence (Q61164+P93830 fused): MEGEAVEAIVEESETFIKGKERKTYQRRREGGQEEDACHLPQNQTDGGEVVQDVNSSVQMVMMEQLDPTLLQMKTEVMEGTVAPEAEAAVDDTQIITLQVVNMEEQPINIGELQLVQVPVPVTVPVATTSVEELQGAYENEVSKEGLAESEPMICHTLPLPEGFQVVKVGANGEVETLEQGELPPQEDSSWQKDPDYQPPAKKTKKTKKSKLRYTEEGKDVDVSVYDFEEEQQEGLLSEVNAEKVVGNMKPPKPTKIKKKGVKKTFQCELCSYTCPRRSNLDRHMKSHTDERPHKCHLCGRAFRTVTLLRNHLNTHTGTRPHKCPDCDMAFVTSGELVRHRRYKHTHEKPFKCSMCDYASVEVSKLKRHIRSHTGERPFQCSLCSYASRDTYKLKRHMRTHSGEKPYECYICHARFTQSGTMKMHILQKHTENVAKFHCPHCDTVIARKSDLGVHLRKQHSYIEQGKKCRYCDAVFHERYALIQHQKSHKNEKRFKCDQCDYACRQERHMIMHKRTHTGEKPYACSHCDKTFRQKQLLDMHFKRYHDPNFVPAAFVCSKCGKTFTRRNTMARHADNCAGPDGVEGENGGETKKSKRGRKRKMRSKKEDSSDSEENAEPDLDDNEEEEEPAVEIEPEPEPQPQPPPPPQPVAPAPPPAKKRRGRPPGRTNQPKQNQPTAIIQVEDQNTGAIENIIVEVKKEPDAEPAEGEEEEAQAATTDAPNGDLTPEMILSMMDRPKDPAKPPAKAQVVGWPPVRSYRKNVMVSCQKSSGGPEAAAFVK
T1 sequence (Q7XVM8 whole entry): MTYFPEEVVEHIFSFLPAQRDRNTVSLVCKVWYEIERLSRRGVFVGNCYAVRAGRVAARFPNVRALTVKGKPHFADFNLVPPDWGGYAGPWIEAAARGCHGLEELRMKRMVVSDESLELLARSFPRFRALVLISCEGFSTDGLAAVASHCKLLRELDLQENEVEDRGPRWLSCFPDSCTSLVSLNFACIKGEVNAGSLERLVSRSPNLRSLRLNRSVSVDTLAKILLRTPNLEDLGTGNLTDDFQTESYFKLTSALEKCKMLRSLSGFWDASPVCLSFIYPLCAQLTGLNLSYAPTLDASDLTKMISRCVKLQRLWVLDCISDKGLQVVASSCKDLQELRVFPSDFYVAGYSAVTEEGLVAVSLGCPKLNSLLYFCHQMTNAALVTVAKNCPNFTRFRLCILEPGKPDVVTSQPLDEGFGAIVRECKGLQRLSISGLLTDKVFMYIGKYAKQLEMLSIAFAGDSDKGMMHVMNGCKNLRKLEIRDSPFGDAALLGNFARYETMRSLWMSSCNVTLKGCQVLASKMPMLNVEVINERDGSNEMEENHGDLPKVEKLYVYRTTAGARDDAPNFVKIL
T1 sequence (Q9WTX5 whole entry partner): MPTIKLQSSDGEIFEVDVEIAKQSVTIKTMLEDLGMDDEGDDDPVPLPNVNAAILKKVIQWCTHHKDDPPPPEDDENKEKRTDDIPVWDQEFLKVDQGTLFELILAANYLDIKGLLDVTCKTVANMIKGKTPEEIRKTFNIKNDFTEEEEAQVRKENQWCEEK
T2 sequence (Q61164+P93830 fused): as the sequence (Q61164+P93830 fused) above
T2 sequence (Q7XVM8 whole entry, further chain): as the sequence (Q7XVM8 whole entry) above
T2 sequence (Q9WTX5 whole entry partner): as the sequence (Q9WTX5 whole entry partner) above

Take `O=C(O)Cc1c[nH]c2ccccc12` [auxin]: in data set [1], the “washout time allowing recovery of CTCF protein” value is recorded as 2 days. Further, the CTCF protein degradation entry in data set [2] is on record as “proteasome-mediated degradation”.

B1: competitor DNA with YY1 consensus sites (dsDNA)
DNA 1: GAGCAACAACAACAACGAACCGGTTCGACCTCCCCGGCCATCTTTCGACCTCCCCGGCCATCTTTCGACCTCCCCGGCCATCTTTCGACCTCCCCGGCCATCTTTCGACCTCCCCGGCCATCTTTCGACCTCCCCGGCCATCTTTCGACCTCCCCGGCCATCTTTCGACCTCCCGTCGACAGAGGCAGCAAAAGCCAGA
DNA 2: TCTGGCTTTTGCTGCCTCTGTCGACGGGAGGTCGAAAGATGGCCGGGGAGGTCGAAAGATGGCCGGGGAGGTCGAAAGATGGCCGGGGAGGTCGAAAGATGGCCGGGGAGGTCGAAAGATGGCCGGGGAGGTCGAAAGATGGCCGGGGAGGTCGAAAGATGGCCGGGGAGGTCGAACCGGTTCGTTGTTGTTGTTGCTC
Consider B1, for which, in data set [3], the binding result is “binds”.

B2: YY1 EMSA probe (dsDNA)
DNA 1: TCGCTCCCCGGCCATCTTGGCGGCTGGTGT
DNA 2: ACACCAGCCGCCAAGATGGCCGGGGAGCGA
With B2, in data set [4], the binding result is reported as “binds”.

B3: RNase A: RNase A (Sigma, R4642) used to treat nuclear extract (protein, UniProt P61823 27-150, looked up)
Ribonuclease pancreatic: KETAAAKFERQHMDSSTSAASSSNYCNQMMKSRNLTKDRCKPVNTFVHESLADVQAVCSQKNVACKNGQTNCYQSYSTMSITDCRETGSSKYPNCAYKTTQANKHIIVACEGNPYVPVHFDASV
For B3, the “reduction in the amount of co-immunoprecipitated YY1 partner protein” value in data set [5] is roughly 60%.
